Measurements: article PMC9486808 (ACS Chemical Biology, 2022)
No end group written: not given here.

B1: Fluorescein-labeled macrocyclic peptide L4 (peptide)
chain: YRWVWTSFFSEPYFVVC
modifications: thioether (positions not given here); not fully specified (N-terminus, bridges); also: fluorescein (FAM) label, position not given here
B2: Fluorescein-labeled macrocyclic peptide S3 (peptide)
chain: YLKIYWSKIHGLVSEWC
modifications: thioether (positions not given here); not fully specified (N-terminus, bridges); also: fluorescein (FAM) label, position not given here
B3: Fluorescein-labeled macrocyclic peptide S5 (peptide)
chain: YVLFRWDHGTLATHWVC
modifications: thioether (positions not given here); not fully specified (N-terminus, bridges); also: fluorescein (FAM) label, position not given here
B4: Fluorescein-labeled macrocyclic peptide L2 (peptide)
chain: YWHKNKYVLTYSCLFAA
modifications: thioether (positions not given here); not fully specified (N-terminus, bridges); also: fluorescein (FAM) label, position not given here

Target: Recombinant soluble trimeric H1 HA ectodomain of A/California/04/2009 (H1N1) (Influenza A virus A/California/04/2009 …)
Assay: fluorescence polarisation
Settings: both partners purified

Binder	Kd [nM]
B1	≤ 1
B2	≤ 1
B3	≤ 1
B4	2.4
